Results as given in patent US20210246166A1 (Bayer, published 2021).
Values belong to the binder of their own block, whether it stands above or below them. Numbered stars: 1 amine (or outer) side, 2 acyl side, 3 side chain; on linkers, the order of the positions; unused ones are H or OH. Bridge positions count the residues as written; N and C are the ends. Square brackets hold non-standard residues; d marks the D form. Ends that are not written are not given here. Phe(2,3-F2) = (2S)-3-(2,3-difluorophenyl)-2-aminopropanoic acid, O=C([C@H](Cc1cccc(F)c1F)N[*:1])[*:2]; X3 = (1R,3S)‑3‑(Amino)cyclopentanecarboxylic acid, O=C([C@@H]1CC[C@H](N[*:1])C1)[*:2]; X4 = (1S,3R)‑3‑(Amino)cyclopentanecarboxylic acid, O=C([C@H]1CC[C@@H](N[*:1])C1)[*:2]; X9 = (S)‑3‑(1-Pyrrolidine-2-yl)‑propionic acid, O=C(CC[C@@H]1CCCN1[*:1])[*:2]; X8 = (R)‑4‑Amino‑6‑methylheptanoic acid, CC(C)C[C@@H](CCC(=O)[*:2])N[*:1]; X6 = (S)‑(1-Piperidin-3-yl)‑acetic acid, O=C(C[C@@H]1CCCN([*:1])C1)[*:2]; Ida = iminodiacetic acid, O=C(CN(CC(=O)[*:3])[*:1])[*:2]; His(τ-Bzl) = N[C@@H](Cc1cn(Cc2ccccc2)cn1)C(=O)O; Oic = O=C(O)[C@@H]1C[C@@H]2CCCC[C@@H]2N1; tBuAla = CC(C)(C)C[C@H](N)C(=O)O; (3-Me)H = L-3-methylhistidine; Pen = CC(C)(S)[C@H](N)C(=O)O; NMeA = CN[C@@H](C)C(=O)O; Nva = CCC[C@H](N)C(=O)O; Sar = CNCC(=O)O

Experiments:
[1] = target: T1, recombinant human MASP1 active protease (amino acids 297-699, C-terminal His Tag) (human, UniProt P48740 297-699); experiment: cell-based or functional assay
T1 sequence: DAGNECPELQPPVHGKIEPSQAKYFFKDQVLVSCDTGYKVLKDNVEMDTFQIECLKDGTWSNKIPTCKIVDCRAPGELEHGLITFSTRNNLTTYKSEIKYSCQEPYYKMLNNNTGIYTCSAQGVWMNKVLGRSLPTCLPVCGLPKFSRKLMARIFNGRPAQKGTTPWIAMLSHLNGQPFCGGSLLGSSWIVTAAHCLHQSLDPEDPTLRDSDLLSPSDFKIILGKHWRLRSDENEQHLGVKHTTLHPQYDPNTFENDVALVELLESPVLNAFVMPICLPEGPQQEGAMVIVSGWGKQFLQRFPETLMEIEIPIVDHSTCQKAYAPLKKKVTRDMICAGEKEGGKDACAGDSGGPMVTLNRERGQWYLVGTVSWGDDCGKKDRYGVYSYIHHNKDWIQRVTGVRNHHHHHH

[2] = target: recombinant human MASP2 active protease (amino acids 297-686, C-terminal His Tag) (human, UniProt O00187 297-686); experiment: cell-based or functional assay
Chain of recombinant human MASP2 active protease (amino acids 297-686, C-terminal His Tag) (O00187 other isoform, or with tags, fused parts or gaps limits assumed): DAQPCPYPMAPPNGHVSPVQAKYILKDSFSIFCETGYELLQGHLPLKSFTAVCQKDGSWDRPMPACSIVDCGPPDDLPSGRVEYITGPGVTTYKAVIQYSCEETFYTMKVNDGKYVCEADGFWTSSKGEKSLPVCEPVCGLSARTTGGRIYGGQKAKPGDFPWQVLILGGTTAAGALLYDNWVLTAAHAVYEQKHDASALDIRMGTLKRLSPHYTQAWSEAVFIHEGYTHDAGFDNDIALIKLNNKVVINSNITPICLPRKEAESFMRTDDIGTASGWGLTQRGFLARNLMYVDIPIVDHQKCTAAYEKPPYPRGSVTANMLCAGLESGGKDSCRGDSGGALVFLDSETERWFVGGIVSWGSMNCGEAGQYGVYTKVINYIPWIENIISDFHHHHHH

human MASP1 IC50 [1]: 2.8 nM
human MASP2 IC50 [2]: 61 nM
Binder: [(3-Me)H]ICSRSLP[Oic]I[Pen]IP-NH2 (disulfide 3-11) [Example 444: ((3-Me)H)-IC+SRSLP-(Oic)-I-(Pen)+IP-NH2]

human MASP1 IC50 [1]: 1.8 nM
human MASP2 IC50 [2]: 93 nM
B1: Example 449: ((N-Me)G)-IC+SRSLP-(Oic)-I-(Pen)+IP-((1R,3S)-3-(Amino)cyclopentanecarboxylic acid)-OH (peptide)
peptide: [Sar]ICSRSLP[Oic]I[Pen]IP[X3]-OH
modifications: disulfide 3-11; N-terminus assumed
SMILES: CC[C@H](C)[C@H](NC(=O)CNC)C(=O)N[C@H]1CSSC(C)(C)[C@@H](C(=O)N[C@H](C(=O)N2CCC[C@H]2C(=O)N[C@H]2CC[C@@H](C(=O)O)C2)[C@@H](C)CC)NC(=O)[C@H]([C@@H](C)CC)NC(=O)[C@@H]2C[C@@H]3CCCC[C@@H]3N2C(=O)[C@@H]2CCCN2C(=O)[C@H](CC(C)C)NC(=O)[C@H](CO)NC(=O)[C@H](CCCNC(=N)N)NC(=O)[C@H](CO)NC1=O

human MASP1 IC50 [1]: 440 nM
human MASP2 IC50 [2]: 1000 nM
B2: Example 448: ((N-Me)G)-IC+RRS-((tBu)A)-PP-(Nva)-(Pen)+IP-NH2 (peptide)
peptide: [Sar]ICRRS[tBuAla]PP[Nva][Pen]IP-NH2
modifications: disulfide 3-11; N-terminus assumed
SMILES: CCC[C@@H]1NC(=O)[C@@H]2CCCN2C(=O)[C@@H]2CCCN2C(=O)[C@H](CC(C)(C)C)NC(=O)[C@H](CO)NC(=O)[C@H](CCCNC(=N)N)NC(=O)[C@H](CCCNC(=N)N)NC(=O)[C@@H](NC(=O)[C@@H](NC(=O)CNC)[C@@H](C)CC)CSSC(C)(C)[C@@H](C(=O)N[C@H](C(=O)N2CCC[C@H]2C(N)=O)[C@@H](C)CC)NC1=O

human MASP1 IC50 [1]: 2.6 nM
human MASP2 IC50 [2]: 61 nM
B3: Example 451: ((N-Me)G)-IC+SRSLP-(Oic)-I-(Pen)+IP-((S)-(1-Piperidin-3-yl)-acetic acid)-OH (peptide)
peptide: [Sar]ICSRSLP[Oic]I[Pen]IP[X6]-OH
modifications: disulfide 3-11; N-terminus assumed
SMILES: CC[C@H](C)[C@H](NC(=O)CNC)C(=O)N[C@H]1CSSC(C)(C)[C@@H](C(=O)N[C@H](C(=O)N2CCC[C@H]2C(=O)N2CCC[C@@H](CC(=O)O)C2)[C@@H](C)CC)NC(=O)[C@H]([C@@H](C)CC)NC(=O)[C@@H]2C[C@@H]3CCCC[C@@H]3N2C(=O)[C@@H]2CCCN2C(=O)[C@H](CC(C)C)NC(=O)[C@H](CO)NC(=O)[C@H](CCCNC(=N)N)NC(=O)[C@H](CO)NC1=O

human MASP1 IC50 [1]: 2.5 nM
human MASP2 IC50 [2]: 56 nM
B4: Example 453: ((N-Me)G)-IC+SRSLP-(Oic)-I-(Pen)+IP-((S)-3-(1-Pyrrolidine-2-yl)-propionic acid)-OH (peptide)
peptide: [Sar]ICSRSLP[Oic]I[Pen]IP[X9]-OH
modifications: disulfide 3-11; N-terminus assumed
SMILES: CC[C@H](C)[C@H](NC(=O)CNC)C(=O)N[C@H]1CSSC(C)(C)[C@@H](C(=O)N[C@H](C(=O)N2CCC[C@H]2C(=O)N2CCC[C@H]2CCC(=O)O)[C@@H](C)CC)NC(=O)[C@H]([C@@H](C)CC)NC(=O)[C@@H]2C[C@@H]3CCCC[C@@H]3N2C(=O)[C@@H]2CCCN2C(=O)[C@H](CC(C)C)NC(=O)[C@H](CO)NC(=O)[C@H](CCCNC(=N)N)NC(=O)[C@H](CO)NC1=O

human MASP1 IC50 [1]: 3 nM
human MASP2 IC50 [2]: 300 nM
Binder: [NMeA]ICSRS[tBuAla]P[(3R,6R)‑1,1‑Difluoro‑5‑azaspiro(2.4)heptane‑6‑carboxylic acid (enantiomer 2)]I[Pen]IP-NH2 (disulfide 3-11)

human MASP1 IC50 [1]: 0.78 nM
human MASP2 IC50 [2]: 74 nM
Binder: [NMeA]ICSRS[tBuAla]P[(3R,6R)‑1,1‑Difluoro‑5‑azaspiro(2.4)heptane‑6‑carboxylic acid (enantiomer 1)]I[Pen]IP-NH2 (disulfide 3-11)

human MASP1 IC50 [1]: 65 nM
human MASP2 IC50 [2]: 220 nM
B5: Example 441: ((N-Me)G)-IC+SRS-((2S)-3-(2,3-difluorophenyl)-2-aminopropanoic acid)-P-(Oic)-I-(Pen)+IP-NH2 (peptide)
peptide: [Sar]ICSRS[Phe(2,3-F2)]P[Oic]I[Pen]IP-NH2
modifications: disulfide 3-11; N-terminus assumed
SMILES: CC[C@H](C)[C@H](NC(=O)CNC)C(=O)N[C@H]1CSSC(C)(C)[C@@H](C(=O)N[C@H](C(=O)N2CCC[C@H]2C(N)=O)[C@@H](C)CC)NC(=O)[C@H]([C@@H](C)CC)NC(=O)[C@@H]2C[C@@H]3CCCC[C@@H]3N2C(=O)[C@@H]2CCCN2C(=O)[C@H](Cc2cccc(F)c2F)NC(=O)[C@H](CO)NC(=O)[C@H](CCCNC(=N)N)NC(=O)[C@H](CO)NC1=O

human MASP1 IC50 [1]: 2 nM
human MASP2 IC50 [2]: 100 nM
B6: Example 452: ((N-Me)G)-IC+SRSLP-(Oic)-I-(Pen)+IP-((1S,3R)-3-(Amino)cyclopentanecarboxylic acid)-OH (peptide)
peptide: [Sar]ICSRSLP[Oic]I[Pen]IP[X4]-OH
modifications: disulfide 3-11; N-terminus assumed
SMILES: CC[C@H](C)[C@H](NC(=O)CNC)C(=O)N[C@H]1CSSC(C)(C)[C@@H](C(=O)N[C@H](C(=O)N2CCC[C@H]2C(=O)N[C@@H]2CC[C@H](C(=O)O)C2)[C@@H](C)CC)NC(=O)[C@H]([C@@H](C)CC)NC(=O)[C@@H]2C[C@@H]3CCCC[C@@H]3N2C(=O)[C@@H]2CCCN2C(=O)[C@H](CC(C)C)NC(=O)[C@H](CO)NC(=O)[C@H](CCCNC(=N)N)NC(=O)[C@H](CO)NC1=O

human MASP1 IC50 [1]: 2.7 nM
human MASP2 IC50 [2]: 72 nM
Binder: [Sar]ICSRSLP[Oic]I[Pen]IP[Ida]-OH (disulfide 3-11) [Example 446: ((N-Me)G)-IC+SRSLP-(Oic)-I-(Pen)+IP-(Ida)-OH]

human MASP1 IC50 [1]: 4.7 nM
human MASP2 IC50 [2]: 65.5 nM
B7: Example 447: ((N-Me)G)-IC+SRS-((tBu)A)-PPI-(Pen)+IP-((1-Bn)H)-OH (peptide)
peptide: [Sar]ICSRS[tBuAla]PPI[Pen]IP[His(τ-Bzl)]-OH
modifications: disulfide 3-11; N-terminus assumed
SMILES: CC[C@H](C)[C@H](NC(=O)CNC)C(=O)N[C@H]1CSSC(C)(C)[C@@H](C(=O)N[C@H](C(=O)N2CCC[C@H]2C(=O)N[C@@H](Cc2cn(Cc3ccccc3)cn2)C(=O)O)[C@@H](C)CC)NC(=O)[C@H]([C@@H](C)CC)NC(=O)[C@@H]2CCCN2C(=O)[C@@H]2CCCN2C(=O)[C@H](CC(C)(C)C)NC(=O)[C@H](CO)NC(=O)[C@H](CCCNC(=N)N)NC(=O)[C@H](CO)NC1=O

human MASP1 IC50 [1]: 2 nM
human MASP2 IC50 [2]: 99 nM
B8: Example 454: ((N-Me)G)-IC+SRSLP-(Oic)-I-(Pen)+IPN-OH (peptide)
peptide: [Sar]ICSRSLP[Oic]I[Pen]IPN-OH
modifications: disulfide 3-11; N-terminus assumed
SMILES: CC[C@H](C)[C@H](NC(=O)CNC)C(=O)N[C@H]1CSSC(C)(C)[C@@H](C(=O)N[C@H](C(=O)N2CCC[C@H]2C(=O)N[C@@H](CC(N)=O)C(=O)O)[C@@H](C)CC)NC(=O)[C@H]([C@@H](C)CC)NC(=O)[C@@H]2C[C@@H]3CCCC[C@@H]3N2C(=O)[C@@H]2CCCN2C(=O)[C@H](CC(C)C)NC(=O)[C@H](CO)NC(=O)[C@H](CCCNC(=N)N)NC(=O)[C@H](CO)NC1=O

human MASP1 IC50 [1]: 5.8 nM
human MASP2 IC50 [2]: 230 nM
B9: Example 450: ((N-Me)G)-IC+SRSLP-(Oic)-I-(Pen)+IP-((R)-4-Amino-6-methylheptanoic acid)-OH (peptide)
peptide: [Sar]ICSRSLP[Oic]I[Pen]IP[X8]-OH
modifications: disulfide 3-11; N-terminus assumed
SMILES: CC[C@H](C)[C@H](NC(=O)CNC)C(=O)N[C@H]1CSSC(C)(C)[C@@H](C(=O)N[C@H](C(=O)N2CCC[C@H]2C(=O)N[C@H](CCC(=O)O)CC(C)C)[C@@H](C)CC)NC(=O)[C@H]([C@@H](C)CC)NC(=O)[C@@H]2C[C@@H]3CCCC[C@@H]3N2C(=O)[C@@H]2CCCN2C(=O)[C@H](CC(C)C)NC(=O)[C@H](CO)NC(=O)[C@H](CCCNC(=N)N)NC(=O)[C@H](CO)NC1=O
